Values of other authors in publication PMC3869910.

Molecular target: alpha-bungarotoxin (Bungarus multicinctus) (UniProt P60615)
Sequence of UniProt P60615 (P60615 22-95): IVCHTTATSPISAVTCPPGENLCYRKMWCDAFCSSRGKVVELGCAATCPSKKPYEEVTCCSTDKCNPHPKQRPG

In the case of “nicotinic acetylcholine receptor alpha1 (y-α1-ECD) ECD (from UniProt P02708)”, the Kd is listed as 5 nM.
